From patent US12371675B2, “Process and microorganism for synthesis of adipic acid from carboxylic acids” (THE GOVERNING COUNCIL OF THE UNIVERSITY OF TORONTO, priority 2015, dated 2025)

What was measured:
[1] = test system: O=C(O)CCCCCO; test: purified protein, by the assay type; settings: pH 7.5
[2] = test system: O=C(O)CCCO; test: purified protein, by the assay type; settings: other: ATP/NADPH dependent reduction; pH 7.5
[3] = test system: O=CCCCCC=O; test: AR kinetics, aldehyde reduction followed by NAD(P)H oxidation; type: biochemical, Pseudomonas aeruginosa; settings: other: adipaldehyde; cofactor NADH; 1,8% DMSO; pH 7.5
Excerpt: (§1) 28 aldehyde reductases from different bacteria were cloned and overexpressed in E. coli. Enzymes purified using affinity chromatography on Ni-NTA resin were screened for reductase activity with adipaldehyde and butyraldehyde in presence of both NADPH and NADH (Table 5). Butyraldehyde was used as a substrate substitute for 4-oxo-butanal, which is not commercially available. Reactions were followed spectrophotometrically, by cofactor oxidation at 340 nm.
(§2) Enzyme activity of purified ARs was measured spectrophotometrically in 96-well plates Reaction mixtures contained 100 mM HEPES buffer (pH 7.5), 0.4 mM NADH/NADPH, 10 mM adipaldehyde or butylaldehyde, and proteins (10 μg for adipaldehyde screen, 2 μg for butyraldehyde screen) in a final volume of 200 μL Reaction mixture for adipaldehyde screening contained 1.8% DMSO. Enzyme reactions were monitored by following the decrease in absorbance at 340 nm (ε340 nm=6,220/M·cm) due to oxidation of NAD(P)H to NAD(P)+.
(§3) ARs RHA1_ro05279, PA1146, SC00229, PP_3370 were characterised for saturation with adipaldehyde, PP_3370, PSPTO_2097, RHA1_ro05279, SC00229, TM_0111, PA1146 were characterised for butyraldehyde saturation (Table 10). […] For both substrates maximal kcat/Km with minimal Km values was shown by AR PP 3370 from Pseudomonas putida.

[4] = test system: CCCC=O; test: as above; type: biochemical, Pseudomonas aeruginosa; settings: other: butyraldehyde, pH 7.5
Excerpt: as §1, §2, §3

[5] = test system: CCCC=O; test: as above; type: biochemical, Pseudomonas syringae; settings: other: butyraldehyde; cofactor NADPH; pH 7.5
Excerpt: as §1, §2, §3

Mycobacterium paratuberculosis carboxylate reductase MAP_1040c, SEQ ID NO: 38 (Mycobacterium avium subsp. paratuberculosis MAP4)
Km [1]: 70.1 ± 7.04 mM

Mycobacterium smegmatis carboxylate reductase MSMEG_2956, SEQ ID NO: 70 (Mycolicibacterium smegmatis MC2 155)
Km [2]: 69.57 ± 4.16 mM
kcat [2]: 0.513 ± 0.017 s⁻¹
kcat/Km [2]: 7.37 ± 0.24 M⁻¹ s⁻¹

Mycobacterium smegmatis carboxylate reductase MSMEG_5739, SEQ ID NO: 37 (Mycolicibacterium smegmatis MC2 155)
Km [2]: 37.84 ± 2.39 mM
kcat [2]: 0.51 ± 0.017 s⁻¹
kcat/Km [2]: 13.5 ± 0.45 M⁻¹ s⁻¹

Mycobacterium smegmatis carboxylate reductase MSMEI_5586, SEQ ID NO: 35 (Mycolicibacterium smegmatis MC2 155)
Km [2]: 19.63 ± 4.88 mM
kcat [2]: 0.152 ± 0.013 s⁻¹
kcat/Km [2]: 7.74 ± 0.66 M⁻¹ s⁻¹

Pseudomonas aeruginosa aldehyde reductase PA1146, SEQ ID NO: 43 (Pseudomonas aeruginosa PAO1)
Km [3]: 9.0 ± 1.99 mM
kcat [3]: 5.45 ± 0.56 s⁻¹
kcat/Km [3]: (6.02 ± 0.06) × ×10^2 M^−1 · s^−1
Km ([4]; cofactor NADH): 15.6 ± 5.94 mM
kcat ([4]; cofactor NADH): 9.01 ± 01.9 s⁻¹
kcat/Km ([4]; cofactor NADH): (5.76 ± 1.22) × ×10^2 M^−1 · s^−1
Km ([4]; cofactor NADPH): 3.37 ± 0.9 mM
kcat ([4]; cofactor NADPH): 0.84 ± 0.08 s⁻¹
kcat/Km ([4]; cofactor NADPH): (2.49 ± 0.24) × ×10^2 M^−1 · s^−1

Pseudomonas syringae aldehyde reductase PSPTO_2097, SEQ ID NO: 46 (Pseudomonas syringae pv. tomato str. DC3000)
Km [5]: 10.3 ± 1.06 mM
kcat [5]: 12.2 ± 0.63 s⁻¹
kcat/Km [5]: (1.18 ± 0.06) × ×10^3 M^−1 · s^−1
